According to patent US20050019306:

Biological target: p48-VP16 TAD (Homo sapiens / Herpes simplex virus) (UniProt Q00978)
Experiment: cell_activity
Conditions: 293T ISRE-Luc reporter

Chain of UniProt Q00978 (Q00978 1-393, tags or fused parts left off): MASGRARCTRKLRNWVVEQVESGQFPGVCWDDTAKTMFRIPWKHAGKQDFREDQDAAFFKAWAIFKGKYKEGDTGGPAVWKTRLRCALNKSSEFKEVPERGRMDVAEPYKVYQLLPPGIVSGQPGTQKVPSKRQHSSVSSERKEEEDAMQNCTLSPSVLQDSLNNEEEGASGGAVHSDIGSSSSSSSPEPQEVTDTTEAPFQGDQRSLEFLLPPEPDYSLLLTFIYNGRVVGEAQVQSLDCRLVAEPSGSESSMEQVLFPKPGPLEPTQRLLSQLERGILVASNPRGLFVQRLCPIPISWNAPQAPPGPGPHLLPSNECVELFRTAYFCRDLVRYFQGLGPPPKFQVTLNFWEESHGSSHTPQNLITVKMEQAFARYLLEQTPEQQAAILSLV

## 5x ISG54 ISRE luciferase reporter
  activity (fold relative to p48-S2C): 3
